Starred links: 1 amine or outer side, 2 acyl side, 3 side chain; linkers in the order of their positions; H or OH if unused. Non-standard residues stand in square brackets, D forms with d. Groups on a side chain read outwards from the residue. No end group written: not given here. *: point of attachment. C20 diacid = O=C(O)CCCCCCCCCCCCCCCCCCC(=O)*; γGlu = O=C(O)[C@H](CCC(=O)[*:2])N[*:1]; αMeF = C[C@](N)(Cc1ccccc1)C(=O)O; 4Pal = N[C@@H](Cc1ccncc1)C(=O)O; αMeL = CC(C)C[C@](C)(N)C(=O)O; Orn = NCCC[C@H](N)C(=O)O; AEEA = NCCOCCOCC(=O)O; Aib = CC(C)(N)C(=O)O
B1: Example 76 (peptide)
peptide: YXEGTXISDYSIXLDXKHQXDFVEXLLEGGPSSGAPPPS
modifications: Aib2; Iva6; αMeL13; Orn16; K17((2-[2-(2-Amino-ethoxy)-ethoxy]-acetyl)2-(γ-Glu)-CO-(CH2)18-CO2H); Aib20; 4-Pal25; C-terminal amide
B2: Example 56 (peptide)
peptide: Y[Aib]EGTFISDYSI[αMeL]LDKK([AEEA-AEEA-γGlu-C20 diacid])HQ[Aib]D[αMeF]VE[4Pal]LLAGGPSSGAPPPS-NH2
modifications: N-terminus assumed
SMILES: CC[C@H](C)[C@H](NC(=O)[C@H](Cc1ccccc1)NC(=O)[C@@H](NC(=O)CNC(=O)[C@H](CCC(=O)O)NC(=O)C(C)(C)NC(=O)[C@@H](N)Cc1ccc(O)cc1)[C@@H](C)O)C(=O)N[C@@H](CO)C(=O)N[C@@H](CC(=O)O)C(=O)N[C@@H](Cc1ccc(O)cc1)C(=O)N[C@@H](CO)C(=O)N[C@H](C(=O)N[C@@](C)(CC(C)C)C(=O)N[C@@H](CC(C)C)C(=O)N[C@@H](CC(=O)O)C(=O)N[C@@H](CCCCN)C(=O)N[C@@H](CCCCNC(=O)COCCOCCNC(=O)COCCOCCNC(=O)CC[C@H](NC(=O)CCCCCCCCCCCCCCCCCCC(=O)O)C(=O)O)C(=O)N[C@@H](Cc1c[nH]cn1)C(=O)N[C@@H](CCC(N)=O)C(=O)NC(C)(C)C(=O)N[C@@H](CC(=O)O)C(=O)N[C@@](C)(Cc1ccccc1)C(=O)N[C@H](C(=O)N[C@@H](CCC(=O)O)C(=O)N[C@@H](Cc1ccncc1)C(=O)N[C@@H](CC(C)C)C(=O)N[C@@H](CC(C)C)C(=O)N[C@@H](C)C(=O)NCC(=O)NCC(=O)N1CCC[C@H]1C(=O)N[C@@H](CO)C(=O)N[C@@H](CO)C(=O)NCC(=O)N[C@@H](C)C(=O)N1CCC[C@H]1C(=O)N1CCC[C@H]1C(=O)N1CCC[C@H]1C(=O)N[C@@H](CO)C(N)=O)C(C)C)[C@@H](C)CC
B3: Example 81 (peptide)
peptide: Y[Aib]EGTFISDYSI[αMeL]LD[Orn]K([AEEA-AEEA-γGlu-C20 diacid])HQ[Aib]DFVE[4Pal]LLEQGPSSGAPPPS-NH2
modifications: N-terminus assumed
SMILES: CC[C@H](C)[C@H](NC(=O)[C@H](Cc1ccccc1)NC(=O)[C@@H](NC(=O)CNC(=O)[C@H](CCC(=O)O)NC(=O)C(C)(C)NC(=O)[C@@H](N)Cc1ccc(O)cc1)[C@@H](C)O)C(=O)N[C@@H](CO)C(=O)N[C@@H](CC(=O)O)C(=O)N[C@@H](Cc1ccc(O)cc1)C(=O)N[C@@H](CO)C(=O)N[C@H](C(=O)N[C@@](C)(CC(C)C)C(=O)N[C@@H](CC(C)C)C(=O)N[C@@H](CC(=O)O)C(=O)N[C@@H](CCCN)C(=O)N[C@@H](CCCCNC(=O)COCCOCCNC(=O)COCCOCCNC(=O)CC[C@H](NC(=O)CCCCCCCCCCCCCCCCCCC(=O)O)C(=O)O)C(=O)N[C@@H](Cc1c[nH]cn1)C(=O)N[C@@H](CCC(N)=O)C(=O)NC(C)(C)C(=O)N[C@@H](CC(=O)O)C(=O)N[C@@H](Cc1ccccc1)C(=O)N[C@H](C(=O)N[C@@H](CCC(=O)O)C(=O)N[C@@H](Cc1ccncc1)C(=O)N[C@@H](CC(C)C)C(=O)N[C@@H](CC(C)C)C(=O)N[C@@H](CCC(=O)O)C(=O)N[C@@H](CCC(N)=O)C(=O)NCC(=O)N1CCC[C@H]1C(=O)N[C@@H](CO)C(=O)N[C@@H](CO)C(=O)NCC(=O)N[C@@H](C)C(=O)N1CCC[C@H]1C(=O)N1CCC[C@H]1C(=O)N1CCC[C@H]1C(=O)N[C@@H](CO)C(N)=O)C(C)C)[C@@H](C)CC
B4: Example 82 (peptide)
peptide: Y[Aib]EGTFISDYSI[αMeL]LD[Orn]K([AEEA-AEEA-γGlu-C20 diacid])HQ[Aib]DFVE[4Pal]LLEGGPSSGAPPPS-NH2
modifications: N-terminus assumed
SMILES: CC[C@H](C)[C@H](NC(=O)[C@H](Cc1ccccc1)NC(=O)[C@@H](NC(=O)CNC(=O)[C@H](CCC(=O)O)NC(=O)C(C)(C)NC(=O)[C@@H](N)Cc1ccc(O)cc1)[C@@H](C)O)C(=O)N[C@@H](CO)C(=O)N[C@@H](CC(=O)O)C(=O)N[C@@H](Cc1ccc(O)cc1)C(=O)N[C@@H](CO)C(=O)N[C@H](C(=O)N[C@@](C)(CC(C)C)C(=O)N[C@@H](CC(C)C)C(=O)N[C@@H](CC(=O)O)C(=O)N[C@@H](CCCN)C(=O)N[C@@H](CCCCNC(=O)COCCOCCNC(=O)COCCOCCNC(=O)CC[C@H](NC(=O)CCCCCCCCCCCCCCCCCCC(=O)O)C(=O)O)C(=O)N[C@@H](Cc1c[nH]cn1)C(=O)N[C@@H](CCC(N)=O)C(=O)NC(C)(C)C(=O)N[C@@H](CC(=O)O)C(=O)N[C@@H](Cc1ccccc1)C(=O)N[C@H](C(=O)N[C@@H](CCC(=O)O)C(=O)N[C@@H](Cc1ccncc1)C(=O)N[C@@H](CC(C)C)C(=O)N[C@@H](CC(C)C)C(=O)N[C@@H](CCC(=O)O)C(=O)NCC(=O)NCC(=O)N1CCC[C@H]1C(=O)N[C@@H](CO)C(=O)N[C@@H](CO)C(=O)NCC(=O)N[C@@H](C)C(=O)N1CCC[C@H]1C(=O)N1CCC[C@H]1C(=O)N1CCC[C@H]1C(=O)N[C@@H](CO)C(N)=O)C(C)C)[C@@H](C)CC

biological target: T1, human GLP-1 receptor (human, UniProt P43220 24-463); assay: SPA, displacement of [125I]-GLP-1 from hGLP-1R membranes, 0.1% bacitracin
T1 construct: whole, on cells; Assayed as crude membranes of stably transfected HEK293 cells; also called hGLP1R; hGLP-1R
Method in brief: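 Binding buffer: 25 mM HEPES pH 7.4, 2.5 mM CaCl₂, 1 mM MgCl₂, 0.1% bacitracin, 0.003% Tween-20, protease inhibitors without EDTA. Four-parameter nonlinear regression; Kᵢ given as geometric mean ± SEM, n = independent replicates run on different days.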

| Binder | Ki [nM] |
| --- | --- |
| B1 | 263 |
| B2 | 530 |
| B3 | 714 |
| B4 | 388 |

biological target: T2, human glucose-dependent insulinotropic polypeptide (GIP) receptor (human, UniProt P48546 22-466); assay: SPA, displacement of [125I]-GIP from hGIPR membranes, 0.1% bacitracin
T2 construct: whole, on cells; Assayed as crude membranes of stably transfected CHO cells; also called hGIPR; human GIP receptor
T2 sequence (looked up): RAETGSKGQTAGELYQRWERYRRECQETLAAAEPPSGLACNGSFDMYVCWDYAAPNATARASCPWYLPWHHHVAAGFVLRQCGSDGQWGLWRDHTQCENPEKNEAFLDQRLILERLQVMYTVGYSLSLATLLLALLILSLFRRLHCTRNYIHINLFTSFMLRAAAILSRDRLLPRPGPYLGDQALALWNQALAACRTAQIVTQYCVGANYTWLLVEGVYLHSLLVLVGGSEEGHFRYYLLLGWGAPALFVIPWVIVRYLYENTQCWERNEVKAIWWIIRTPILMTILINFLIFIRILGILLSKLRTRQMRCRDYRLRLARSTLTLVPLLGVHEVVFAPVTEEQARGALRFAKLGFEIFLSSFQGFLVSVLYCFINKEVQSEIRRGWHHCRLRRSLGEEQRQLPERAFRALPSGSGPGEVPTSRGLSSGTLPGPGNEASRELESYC

| Binder | Ki [nM] |
| --- | --- |
| B1 | 0.0293 |
| B2 | 0.0487 |
| B3 | 0.0374 |
| B4 | 0.0617 |

biological target: T3, human glucagon receptor (human, UniProt P47871 26-477); assay: SPA, displacement of [125I]-Gcg from hGcgR membranes, 0.1% bacitracin
T3 construct: whole, on cells; Assayed as crude membranes of stably transfected HEK293 cells; also called hGcgR; GcgR
Method in brief: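 Binding buffer: 25 mM HEPES pH 7.4, 2.5 mM CaCl₂, 1 mM MgCl₂, 0.003% Tween-20, protease inhibitors without EDTA. Counted by scintillation after 12 h incubation/settling at room temperature. Four-parameter nonlinear fit; Kᵢ given as geometric mean ± SEM of independent replicates run on different days.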

T3 sequence (P47871 26-477): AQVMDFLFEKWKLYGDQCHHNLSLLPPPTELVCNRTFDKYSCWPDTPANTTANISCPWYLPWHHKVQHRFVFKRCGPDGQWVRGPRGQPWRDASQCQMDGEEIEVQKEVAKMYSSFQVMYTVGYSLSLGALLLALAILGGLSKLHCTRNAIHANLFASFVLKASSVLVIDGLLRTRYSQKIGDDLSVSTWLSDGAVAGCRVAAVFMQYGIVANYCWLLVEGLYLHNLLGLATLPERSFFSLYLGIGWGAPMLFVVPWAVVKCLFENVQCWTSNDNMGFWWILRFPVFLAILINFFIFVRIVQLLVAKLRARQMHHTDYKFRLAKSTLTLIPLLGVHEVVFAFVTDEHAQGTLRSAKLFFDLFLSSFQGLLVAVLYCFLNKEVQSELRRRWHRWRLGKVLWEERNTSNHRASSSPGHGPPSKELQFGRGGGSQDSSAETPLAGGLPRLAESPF

| Binder | Ki [nM] |
| --- | --- |
| B1 | 358 |
| B2 | 193 |
| B3 | 699 |
| B4 | 305 |
